Assay results reported in patent US20240400722A1, “Chemically Inducible Heterodimerizing System and A Method For Generation Thereof” (Miltenyi Biotec B.V. & Co. KG, priority 2023, published 2024).
Entries after “also recorded” stand apart in the source; their conditions may differ.

Key:
acVHH-V104D [1] = test: Yeast surface display binding of acVHH variants to soluble acVHH-V104D; design: species or system llama; conditions: for background binding signal in the absence of any small molecule: 500 nM soluble acVHH-V104D, buffer only (control, PBSA); for affinity towards acVHH-V104D: summary statement, interaction dependent on caffeine; for affinity (KD) to acVHH-V104D: titration with soluble acVHH-V104D in the presence of 30 μM caffeine; for dependency of heterodimerization with acVHH-V104D on the presence of caffeine: yeast display flow cytometry, with or without caffeine
Protocol: The staining for flow cytometry characterization was performed in PBSA (PBS containing 15 μM bovine serum albumin). […] In addition, controls with buffer only (containing neither an ac VHH variant nor caffeine) were included. After a washing step the cells were stained for 20 min at 4° C. and shaking with either streptavidin-Alexa Fluor 647 (Invitrogen) or Penta-His-Alexa Fluor 647 (Qiagen) to assess acVHH-V104D or acVHH-WT binding, as well as anti-HA-Alexa Fluor 488 (clone 16B12, Biolegend) or anti-c-myc AlexaFluor 488 (9E10, Thermofisher) to assess display (anti-HA) or full-length display (anti-c-myc) of the acVHH variants, respectively. After a final washing step, the cells were analyzed with a CytoFLEX S flow cytometer (Beckman Coulter).
Expression of the acVHH variants on yeast was induced by culturing the cells in SG-CAA medium (20 g/L galactose, 2 g/L glucose, 6.7 g/L yeast nitrogen base, 5 g/L bacto casamino acids, 10.2 g/L Na2HPO4*7 H2O, 8.56 g/L NaH2PO4*H2O) overnight at 20° C. and 180 rpm. Detection of full-length proteins on the surface of the cells was carried out by staining the cells with anti-c-myc AlexaFluor 488 (9E10, Thermo Fisher). […] After a washing step with PBSA, they were stained with an anti-HA-Alexa Fluor 488 (BioLegend) to gate for displaying yeast cells and the geometric mean fluorescence intensity (gMFI) of binding to acVHH-V104D, detected by co-staining with a Penta-His-Alexa Fluor 647 (Qiagen) (recognizing the His-tag on acVHH-V104D) was measured.
Expression of the variants on yeast was carried out in SG-CAA as described above. Full length display was assessed by staining with an anti-c-myc AlexaFluor 488 (9E10, Thermo Fisher) and binding to soluble acVHH-V104D was assessed by staining with Penta-His-Alexa Fluor 647 (Qiagen).
56 clones of the library were sequenced as explained in Example 2. Only 2 variants were obtained, namely dfM1-1 and dfM1-2. Their binding and affinity to soluble acVHH-V104D as well as full length display was assessed with yeast surface display as described in Example 2.

acVHH-V104D [2] = test: NanoBiT protein complementation assay in Jurkat T cells, intracellular binding to acVHH-V104D; type: cell-based, llama; conditions: for background signal at very low concentrations of caffeine / background signal in the absence of caffeine: compared with acVHH-WT/acVHH-WT homodimers
Text: (§1) The ac VHH variants were N-terminally fused to an extracellular globular domain used to assess expression, as well as a transmembrane domain, and C-terminally fused to a subunit of the split NanoLuc (NanoBiT® system), Promega. Thus, the resulting fusion protein consisted of an extracellular globular domain, followed by a transmembrane domain and intracellular ac VHH variants followed by a subunit of split NanoLuc luciferase.
The different chains built were as follows: the first polypeptide chain comprised truncated EGFR extracellular and transmembrane domain, followed by a 2×G4S linker and cither ac VHH-V104D or ac VHH-WT, followed by a linker (SEQ ID NO:31) and 11S NanoBiT® “Large BiT”, whereas the second polypeptide chain comprised truncated HER2 extracellular and transmembrane domain, followed by a linker (SEQ ID NO:32) and either ac VHH-V104D or ac VHH-WT or ac VHH-M1 or acVHH-M2 or dfM1-1 or dfM1-2, followed by a linker (SEQ ID NO:33) and 114 NanoBiT® “Small BiT”. The sequence of the truncated HER2 extracellular and transmembrane domain involved the amino acids at positions 339-683 according to the deposited Uniprot sequence (ID P04626). The sequence of the truncated EGFR extracellular and transmembrane domain involved the amino acids at positions 334-675 according to the deposited Uniprot sequence (ID P00533). The principle of the assay is as follows: upon binding of (i.e. dimerization) of the respective ac VHH variants, the fused NanoLuc luciferase subunits are brought into close proximity (the two subunits being fused to the two different polypeptide chains, respectively), thus resulting in a functional luciferase enzyme, whose activity can be measured.
In vitro transcription was performed with 200 ng of purified PCR product using the mMessage mMachine T7 Ultra Kit (Ambion) according to the manufacturer's instructions. The resulting mRNAs were column purified with the RNeasy Kit (Qiagen), aliquoted to 5 μg and frozen at −80° C. until electroporation. Jurkat T cells were electroporated with 5 μg mRNA per chain (10 μg mRNA total) using the Gene Pulser (Bio-Rad) and the following parameters: square wave protocol, 500 V, 5 ms, 4 mm cuvettes.
Intracellular function of the dimers was assessed with the Nano-Glo® Luciferase Assay System (Promega).

[3] = Preparative size exclusion chromatography of acVHH variants; type: physicochemical; conditions: HiLoad Superdex 75 pg, elution in PBS
Protocol: Protein aggregates were removed via preparative size exclusion chromatography (SEC). The samples were first centrifuged at 16 000 rpm for 3 min to remove large aggregates and the supernatant was loaded onto a HiLoad Superdex 75 pg column connected to a Bio-Rad NG-C chromatography system. Elution was performed in PBS and the fractions containing proteins based on absorbance at 280 nm were pooled, concentrated as mentioned above and stored at −30° C.

acVHH-WT = test: NanoBiT protein complementation assay in Jurkat T cells, acVHH-WT homodimer; type: cell-based, llama
Text: as §1
The different chains built were as follows: the first polypeptide chain comprised truncated EGFR extracellular and transmembrane domain, followed by a 2×G4S linker and cither ac VHH-V104D or ac VHH-WT, followed by a linker (SEQ ID NO:31) and 11S NanoBiT® “Large BiT”, whereas the second polypeptide chain comprised truncated HER2 extracellular and transmembrane domain, followed by a linker (SEQ ID NO:32) and either ac VHH-V104D or ac VHH-WT or ac VHH-M1 or acVHH-M2 or dfM1-1 or dfM1-2, followed by a linker (SEQ ID NO:33) and 114 NanoBiT® “Small BiT”. […] The principle of the assay is as follows: upon binding of (i.e. dimerization) of the respective ac VHH variants, the fused NanoLuc luciferase subunits are brought into close proximity (the two subunits being fused to the two different polypeptide chains, respectively), thus resulting in a functional luciferase enzyme, whose activity can be measured. […]

[4] = +/- 30 μM caffeine, normalized to acVHH-WT homodimer with caffeine
[5] = increasing concentrations of caffeine

B1: dfM1-1 (protein)
chain: QVQLVESGGGLVQAGGSLRLSATAYGKTGTIYSMAWFRQAPGKEREFLAPVALGLQSTYYMDSVKGRFTISRDKGKNTVYLQMDSLKPEDTAVYYAAATRAYSVGYDYWGQGTQVTVTS
modifications: left off: large carriers; small tags and cut ends
background binding signal in the absence of any small molecule (acVHH-V104D [1]): does not trigger any detectable signal
affinity towards acVHH-V104D (acVHH-V104D [1]): high affinity in the nanomolar range
affinity (KD) to acVHH-V104D (acVHH-V104D [1]): low nM range
intracellular binding with acVHH-V104D (acVHH-V104D [2]; [4]): efficient heterodimerization
background signal at very low concentrations of caffeine (acVHH-V104D [2]): strongly reduced
background signal in the absence of caffeine (acVHH-V104D [2]): strongly reduced

B2: dfM1-2 (protein)
chain: EVQLVESGGGLVQAGGSLRLSATAYGRTGTIYSMAWFRQAPGKEREFLAPVALGLQSTYYMDSVKGRFTISRDKGKNTVYLQMDSLKPEDTAVYYAAATRAYSVGYDYWGQGTQVTVSS
modifications: left off: large carriers; small tags and cut ends
background binding signal in the absence of any small molecule (acVHH-V104D [1]): does not trigger any detectable signal
affinity towards acVHH-V104D (acVHH-V104D [1]): high affinity in the nanomolar range
affinity (KD) to acVHH-V104D (acVHH-V104D [1]): low nM range
intracellular binding with acVHH-V104D (acVHH-V104D [2]; [4]): efficient heterodimerization
background signal at very low concentrations of caffeine (acVHH-V104D [2]): strongly reduced
background signal in the absence of caffeine (acVHH-V104D [2]): strongly reduced

B3: acVHH-V104D: acVHH-WT variant with point mutation V104D, SEQ ID NO:2; first antigen binding domain AB1 (protein)
VHH: QVQLVESGGGLVQAGGSLRLSCTASGRTGTIYSMAWFRQAPGKEREFLATVGWSSGITYYMDSVKGRFTISRDKGKNTVYLQMDSLKPEDTAVYYCTATRAYSDGYDYWGQGTQVTVSS
preparative SEC profile [3]: monomeric profile; also recorded: elutes as a defined monomeric peak
intracellular binding with acVHH-V104D (acVHH-V104D [2]; [4]): does not show any detectable homodimerization
intracellular binding with acVHH-V104D (acVHH-V104D [2]; [5]): does not show any detectable homodimerization

B4: acVHH-M2 (protein)
chain: QVQLVESGGGLVQAGGSLRLSCTASGRTGTIYSMAWFRQAPGKEREFLAQQRWLFRRTYYMDSVKGRFTISRDKGKNTVYLQMDSLKPEDTAVYYCTATRAYSVGYDYWGQGTQVTVSS
modifications: left off: large carriers; small tags and cut ends
background binding signal in the absence of any small molecule (acVHH-V104D [1]): virtual absence of any background signal
affinity towards acVHH-V104D (acVHH-V104D [1]): high affinity in the nanomolar range
dependency of heterodimerization with acVHH-V104D on the presence of caffeine (acVHH-V104D [1]): clear dependency
intracellular binding with acVHH-V104D (acVHH-V104D [2]; [4]): not detectable
background signal in the absence of caffeine (acVHH-V104D [2]): strongly reduced

B5: acVHH-M1 (protein)
chain: QVQLVESGGGLVQAGGSLRLSCTASGRTGTIYSMAWFRQAPGKEREFLAPVALGLQSTYYMDSVKGRFTISRDKGKNTVYLQMDSLKPEDTAVYYCTATRAYSVGYDYWGQGTQVTVSS
modifications: left off: large carriers; small tags and cut ends
background binding signal in the absence of any small molecule (acVHH-V104D [1]): virtual absence of any background signal; also recorded: does not trigger any detectable signal
affinity towards acVHH-V104D (acVHH-V104D [1]): high affinity in the nanomolar range
affinity (KD) to acVHH-V104D (acVHH-V104D [1]): low nM range
dependency of heterodimerization with acVHH-V104D on the presence of caffeine (acVHH-V104D [1]): clear dependency
intracellular binding with acVHH-V104D (acVHH-V104D [2]; [4]): weak
background signal at very low concentrations of caffeine (acVHH-V104D [2]): strongly reduced
background signal in the absence of caffeine (acVHH-V104D [2]): strongly reduced

B6: acVHH-WT: existing thermally stable caffeine-specific single domain antibody fragment from llama used for homodimerization, SEQ ID NO:1 (protein)
VHH: QVQLVESGGGLVQAGGSLRLSCTASGRTGTIYSMAWFRQAPGKEREFLATVGWSSGITYYMDSVKGRFTISRDKGKNTVYLQMDSLKPEDTAVYYCTATRAYSVGYDYWGQGTQVTVSS
intracellular homodimerization of acVHH-WT (acVHH-WT; +/- 30 μM caffeine): shows homodimerization, which is enhanced by addition of caffeine
intracellular homodimerization of acVHH-WT (acVHH-WT; [5]): shows homodimerization, which is enhanced by addition of caffeine
intracellular binding with acVHH-V104D (acVHH-V104D [2]; [5]): very weak heterodimerization
